Target: T1, mouse DR5 (Mus musculus (4T1: BALB/c; MC38: …, UniProt Q9QZM4)
T1 construct: mouse DR5, endogenous on the surface of 4T1 and MC38 cells; also called muDR5; murine DR5; source: endogenous, on murine 4T1 and MC38 cells
Experiment: flow cytometry on cells; antibody on murine 4T1 and MC38 cells, FACS histograms
Conditions: one partner purified

T1 sequence (Q9QZM4 53-381): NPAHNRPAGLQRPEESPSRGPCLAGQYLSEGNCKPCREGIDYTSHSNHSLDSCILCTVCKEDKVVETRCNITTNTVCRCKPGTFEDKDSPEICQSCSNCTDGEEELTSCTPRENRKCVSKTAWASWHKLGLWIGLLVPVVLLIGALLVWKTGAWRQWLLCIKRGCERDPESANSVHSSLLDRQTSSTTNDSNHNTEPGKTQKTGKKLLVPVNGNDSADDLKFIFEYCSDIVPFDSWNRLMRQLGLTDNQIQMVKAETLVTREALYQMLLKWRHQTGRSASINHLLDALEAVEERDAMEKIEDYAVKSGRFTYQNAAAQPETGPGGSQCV

binding result: binds
B1: MD5‐1 (antibody, V domains shown)
VH: QIQLQESGPGLVKPAQSLSLTCSITGFPITAGGYWWTWIRQFPGQKLEWMGYIYSSGSTNYNPSIKSRISITRDTAKNQFFLQLNSVTTEEDTAIYYCARAGTSYSGFFDSWGQGTLVTVSS
VL: DIQVTQSPSLLSASFGDKVTINCLVTQDITYYLSWYQQKSGQPPTLLIYNGNSLQSGVPSRFSGQYSGRTFTLSLSSLEPEDAGTYYCLQHYSVPFTFGGGTRLEIK
notes: heavy chain of MD5‐1; light chain of MD5‐1; for efficacy studies it is said to carry IgG1 KO‐Fc and S267E mutations; also called anti‐mouse DR5 antibody (MD5‐1); murine DR5 agonist MD5‐1

From publication PMC7933954 (EMBO Molecular Medicine, 2021)
